From article PMC6943137, “A novel 5′-hydroxyl dinucleotide hydrolase activity for the DXO/Rai1 family of enzymes” come the findings set out here.

The series addresses T1, DXO (mouse, UniProt O70348 1-397).
T1 sequence: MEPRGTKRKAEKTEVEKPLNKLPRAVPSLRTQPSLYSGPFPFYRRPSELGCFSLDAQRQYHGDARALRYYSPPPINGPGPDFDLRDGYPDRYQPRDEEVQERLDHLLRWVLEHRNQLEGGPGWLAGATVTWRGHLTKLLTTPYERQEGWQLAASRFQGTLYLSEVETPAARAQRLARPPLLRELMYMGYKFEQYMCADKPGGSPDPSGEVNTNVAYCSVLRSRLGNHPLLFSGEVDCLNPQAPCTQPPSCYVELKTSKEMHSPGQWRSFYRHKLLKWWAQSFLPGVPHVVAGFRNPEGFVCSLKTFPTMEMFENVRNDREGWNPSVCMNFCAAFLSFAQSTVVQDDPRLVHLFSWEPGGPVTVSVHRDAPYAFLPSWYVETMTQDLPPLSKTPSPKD
The experiment in a line: X-ray crystallography, 2.0 A; Ca2+ (one ion); RNA occupancy ~80%, no hydrolysis in crystal; Crystal structure; crystallization buffer not in the material. Nuclease assays (turnover, not listed): 10 mM Tris pH 7.5, 50 mM KOAc, 2 mM Mg(OAc)2, 2 mM MnCl2, 1 mM DTT, 0.1 mM spermine. The following applies: protein: recombinant; tags: His-tag (pET28a); single strand.

In the case of UUUUUU (XNA, phosphorothioate backbone; 5'-hydroxyl (5'-PO4 removed by CIP)) [5'-OH U(S)6 RNA], the binding result is listed as “binds”.
